The results in this text go back to a protein production outcome set (Wang et al. 2014).

The nature of the series: label from the status in PepcDB records.
Take “MSNLPLISVVIPTYGREEILRDSIVDVLNQDYPKYEVLVVDQSPKHKPEIETYLEEVAAAGKVKWFRLDWASLPGARNYAIRRASGEIILFIDDDVKLKPGFLAAHAKNYVQNPDVGSVAGRVFDRMKLGDSGGNLEIEYLPPEAMDPGVAWYHIDLVHTIKPQQVLTARGCNMSFRREIFTKHGLRFDERFRGSAVREESDFCLRLRQTGYKIWYDPEADLIHLGEETGGCHDISMRSLKYQFTFYHNHFLLGLKNLNFSQALRLYARLFDCHVLGRPPCHKSGSPIKIITRGIFYILGFFRALGSVIQSNWHDGQIYSRLDQESIIKSQESMVNS”: the protein production result is “failed”.

In the case of “ASHLQFVQPKKAPPLSVSLIQGNIPQDLKWLTEYQFKTLMIYANLTRSEWGRDLIVWPESSIPMFQTDIQPFLDAMNQQAKNRGSAWVTGIPYWDVTGSREVGTPLYYNSIMASGDNSQGLYKKQRLVPFGEYIPLSGLLSWVLPALQNDPSMSGFSQGSNNQKPLMIKGHRLAAAICYEVAYPNLTRRNAENSDFLVTVSNDAWFTGTAGPMQHLQMVQMRAKENGRWFIRATNTGVTAFIDSQGHIVKQAPIDKEAVLRGDLPAMQGETLYTRLSDWPILLFSVLLLILGWIYRPRQVDVSFKSRR”, the protein production result is “failed”.

On to “MALSTEKKVGFFFMAGLVVLGVMLELGERWNPFEKNLPYVTYLSSTTGLKVGDPVRLAGVEVGKITRIDIEDGRVKVGFEVKPGTRIKTDSVATIRLTNLLGGQFLGISFGTQTADILAPGSEVKSREIANIDIIVDNVSDLTKDARTFLNDLNTNQNEVLGKISTMLDENRGNLKGAVQNLNSITAKMDRGEGSLAMLLNDKALYQNTNELATSLKTVTGKIERGEGSLGKLVNEDALYVEAKGALAELNAGAKDIKEIAAKINKGEGSVGKLVHDEALYNELRDASKNISDVARKINEGQGTLGKLVNDDKLYRDTAAAMKKLDKAADGLSDSGPISVLGSVVGTLF”, for which the protein production result is listed as “failed”.

As for “MRVLILGSGVIGTTSAWYLSKAGCEVVVVDRQSGAGLETSYANGGQLSFGYTSPWAAPGVPLKAVRWLFERHAPLSIRPTTDWNQYVWLARMLRHCSAERYAVNKSRMLRLSEYSREALEALSAETGITFEGRRLGTIQLFRTQQQLDGAVRDIELLTQYGIPYEVLSPHQLAKFEPGLADGSVRFVGALRLPHDQTGDCCLFTQRLAALAAKRGVEFRYGCTVQRLEVDGPRVTGAWINGALERADCCVVALGSYSPLLLAPLGLRLPVYPLKGFSLTLPMIDASRAPVSTVLDESYKVAVTRFDERIRVAGMAEVSGYDVSLNPRRRSTLEMVVQDVYPGCGDLGRGEFWTGLRPATPDGTPVIGATPYQGLFLNTGHGTLGWTMSSGSGRYLADLICCRPCEISSEGLDMFRYLVSTIPCPQECAPCVPPTP”, the protein production entry was “failed”.

“MVVNKRLILILLFILNTAKSDELSWKGNDFTLYARQMPLAEVLHLLSENYDTAITISPLITATFSGKIPPGPPVDILNNLAAQYDLLTWFDGSMLYVYPASLLKHQVITFNILSTGRFIHYLRSQNILSSPGCEVKEITGTKAVEVSGVPSCLTRISQLASVLDNALIKRKDSAVSVSIYTLKYATAMDTQYQYRDQSVVVPGVVSVLREMSKTSVPASSTTNGSPATQALPMFAADPRQNAVIVRDYAANMAGYRKLITELDQRQQMIEISVKIIDVNAGDINQLGIDWGTAVSLGGKKIAFNTGLNDGGASGFSTVISDTSNFMVRLNALEKSSQAYVLSQPSVVTLNNIQAVLDKNITFYTKLQGEKVAKLESITTGSLLRVTPRLLNDNGTQKIMLNLNIQDGQQSDTQSETDPLPEVQNSEIASQATLLAGQSLLLGGFKQGKQIHSQNKIPLLGDIPVVGHLFRNDTTQVHSVIRLFLIKASVVNNGISHG”: the protein production entry was “failed”.

For the sequence “MTMEPRVLRREEWDSWYGSLIRAFGGVPEPAEELELFRELTRVDRSIGVWERDGEAEACVGTTGSFDFRMTVPGGAQVRAAGVTMVSVAATHRRRGVLTSMMRRQLDDVRAWGEPLAVLTASEPAIYGRFGYGAATFSLSAEIDTSRVRLSVPAGTDDVRLRYAAPADVLDACEAVYARLVPGRPGMLARRPGWERLALLDPESGRDGASPLQCVVARRGGEVTGFARFRVRPAWGPEGAGGTVVLDDLAGLDPATEAALWRFLYDVDLTSRLAVRGRPVDEAWQYQVSDIRRCRPESRDALYVRLVDVGAALAARTYQAPVDVVFEVEDAFCPWNAGRWRLSGDAKGASCERTSDGADLALSVRELGAAYLGGVRLSSLGAAGRVREVRAGALAEASVGFGSDVAPWLPHGF”, the protein production entry is reported as “failed”.
